Assay results: paper PMC8924211 (Nature Communications, 2022)
Positions count from the first letter of the chain named.

How the values were obtained:
Assay in all cases: AlphaScreen or HTRF; saturation binding: HEK293 cells transfected with SNAP-tagged receptor (WT or mutant) and labelled with SNAP-Lumi4-Tb, incubated with increasing concentrations of galanin-A2 in the presence or absence of 100 uM unlabeled galanin, 1 h at room temperature; HTRF ratio 665 nm/620 nm
Conditions in all cases: one partner purified
[1] = biological target: T1, N-terminal-SNAP-tagged GAL1R, wild type (human, UniProt P47211 1-349, Lumi4-Tb on the SNAP tag)
T1 construct: also called SNAP-GAL1R; GAL1R WT; source: HEK293, transfected, on cells; not shown: SNAP tag, N-terminal, kept
T1 sequence (looked up): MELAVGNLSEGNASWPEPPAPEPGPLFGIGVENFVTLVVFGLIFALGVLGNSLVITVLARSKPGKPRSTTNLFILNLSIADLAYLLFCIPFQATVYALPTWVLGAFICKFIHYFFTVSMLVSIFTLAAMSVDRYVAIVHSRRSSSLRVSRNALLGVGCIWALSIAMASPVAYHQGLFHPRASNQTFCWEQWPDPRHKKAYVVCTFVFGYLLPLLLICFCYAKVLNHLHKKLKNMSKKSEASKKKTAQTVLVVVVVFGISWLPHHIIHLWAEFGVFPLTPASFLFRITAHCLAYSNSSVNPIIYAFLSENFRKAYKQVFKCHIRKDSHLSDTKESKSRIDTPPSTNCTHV

SNAP-GAL1R F177^ECL2A = biological target: T2, SNAP-GAL1R F177^ECL2A (human, UniProt P47211 1-349, F177^ECL2A, Lumi4-Tb on the SNAP tag)
T2 construct: also called F177A; source: HEK293, transfected, on cells; not shown: SNAP tag, N-terminal, kept
T2 sequence (looked up): T1 sequence (looked up) with F177A

SNAP-GAL1R Q174^4.64A = biological target: T3, SNAP-GAL1R Q174^4.64A (human, UniProt P47211 1-349, Q174^4.64A, Lumi4-Tb on the SNAP tag)
T3 construct: also called Q174A; source: HEK293, transfected, on cells; not shown: SNAP tag, N-terminal, kept
T3 sequence (looked up): T1 sequence (looked up) with Q174A

SNAP-GAL1R W260^6.48A = biological target: T4, SNAP-GAL1R W260^6.48A (human, UniProt P47211 1-349, W260^6.48A, Lumi4-Tb on the SNAP tag)
T4 construct: also called W260A; source: HEK293, transfected, on cells; not shown: SNAP tag, N-terminal, kept
T4 sequence (looked up): T1 sequence (looked up) with W260A

SNAP-GAL1R H289^7.39A = biological target: T5, SNAP-GAL1R H289^7.39A (human, UniProt P47211 1-349, H289^7.39A, Lumi4-Tb on the SNAP tag)
T5 construct: also called H289A; source: HEK293, transfected, on cells; not shown: SNAP tag, N-terminal, kept
T5 sequence (looked up): T1 sequence (looked up) with H289A

B1: galanin-A2 (full-length galanin labeled with the dye A2 on an additional cysteine at the C-terminal end) (peptide)
peptide: GWTLNSAGYLLGPHAVGNHRSFSDKNGLTSC
modifications: dye A2 on the additional C-terminal cysteine
notes: numbers count on: the mature protein; additional cysteine at the C-terminal end of the peptide, carries the dye A2; source: synthetic peptide (synthesized by Vazyme, China)
Kd [1]: 22.2 nM | Kd (SNAP-GAL1R F177^ECL2A): 305 nM | Kd (SNAP-GAL1R Q174^4.64A): 351 nM | Kd (SNAP-GAL1R W260^6.48A): 51.2 nM | Kd (SNAP-GAL1R H289^7.39A): 136 nM
